The target in the experiment is PTH receptor (rat (ROS 17/2 rat osteosarcoma cell …, UniProt P25961)). The experiment in a line: cell-based or functional assay.

Bridges are numbered along the chain shown (N, C = ends). Where no end group is shown, it is not given here. [ ]: non-standard residue; d: D form. Orn = NCCC[C@H](N)C(=O)O Bounds are passed on as bounds.

B1: [Leu^27]cyclo(Asp^22-Orn^26)-hPTH-(1-31)-NH2 (peptide)
peptide: SVSEIQLMHNLGKHLNSMERVDWLR[Orn]LLQDV-NH2
modifications: lactam 22-26; N-terminus assumed
SMILES: CC[C@H](C)[C@H](NC(=O)[C@H](CCC(=O)O)NC(=O)[C@H](CO)NC(=O)[C@@H](NC(=O)[C@@H](N)CO)C(C)C)C(=O)N[C@@H](CCC(N)=O)C(=O)N[C@@H](CC(C)C)C(=O)N[C@@H](CCSC)C(=O)N[C@@H](Cc1c[nH]cn1)C(=O)N[C@@H](CC(N)=O)C(=O)N[C@@H](CC(C)C)C(=O)NCC(=O)N[C@@H](CCCCN)C(=O)N[C@@H](Cc1c[nH]cn1)C(=O)N[C@@H](CC(C)C)C(=O)N[C@@H](CC(N)=O)C(=O)N[C@@H](CO)C(=O)N[C@@H](CCSC)C(=O)N[C@@H](CCC(=O)O)C(=O)N[C@@H](CCCNC(=N)N)C(=O)N[C@H](C(=O)N[C@H]1CC(=O)NCCC[C@@H](C(=O)N[C@@H](CC(C)C)C(=O)N[C@@H](CC(C)C)C(=O)N[C@@H](CCC(N)=O)C(=O)N[C@@H](CC(=O)O)C(=O)N[C@H](C(N)=O)C(C)C)NC(=O)[C@H](CCCNC(=N)N)NC(=O)[C@H](CC(C)C)NC(=O)[C@H](Cc2c[nH]c3ccccc23)NC1=O)C(C)C
Regarding B1, the “Adenylyl Cyclase (EC50)” value is more than 200 nM.

B2: [Leu^27]cyclo(Lys^22-Glu^26)-hPTH-(1-31)-NH2 (peptide)
peptide: SVSEIQLMHNLGKHLNSMERVKWLRELLQDV-NH2
modifications: lactam 22-26; N-terminus assumed
SMILES: CC[C@H](C)[C@H](NC(=O)[C@H](CCC(=O)O)NC(=O)[C@H](CO)NC(=O)[C@@H](NC(=O)[C@@H](N)CO)C(C)C)C(=O)N[C@@H](CCC(N)=O)C(=O)N[C@@H](CC(C)C)C(=O)N[C@@H](CCSC)C(=O)N[C@@H](Cc1c[nH]cn1)C(=O)N[C@@H](CC(N)=O)C(=O)N[C@@H](CC(C)C)C(=O)NCC(=O)N[C@@H](CCCCN)C(=O)N[C@@H](Cc1c[nH]cn1)C(=O)N[C@@H](CC(C)C)C(=O)N[C@@H](CC(N)=O)C(=O)N[C@@H](CO)C(=O)N[C@@H](CCSC)C(=O)N[C@@H](CCC(=O)O)C(=O)N[C@@H](CCCNC(=N)N)C(=O)N[C@H](C(=O)N[C@H]1CCCCNC(=O)CC[C@@H](C(=O)N[C@@H](CC(C)C)C(=O)N[C@@H](CC(C)C)C(=O)N[C@@H](CCC(N)=O)C(=O)N[C@@H](CC(=O)O)C(=O)N[C@H](C(N)=O)C(C)C)NC(=O)[C@H](CCCNC(=N)N)NC(=O)[C@H](CC(C)C)NC(=O)[C@H](Cc2c[nH]c3ccccc23)NC1=O)C(C)C
For B2, the “Adenylyl Cyclase (EC50)” value came to 4 nM.

B3: [Cys^22, Cys^26, Leu^27]cyclo(Cys^22-Cys^26)-hPTH-(1-31)-NH2 (peptide)
peptide: SVSEIQLMHNLGKHLNSMERVCWLRCLLQDV-NH2
modifications: disulfide 22-26; N-terminus assumed
SMILES: CC[C@H](C)[C@H](NC(=O)[C@H](CCC(=O)O)NC(=O)[C@H](CO)NC(=O)[C@@H](NC(=O)[C@@H](N)CO)C(C)C)C(=O)N[C@@H](CCC(N)=O)C(=O)N[C@@H](CC(C)C)C(=O)N[C@@H](CCSC)C(=O)N[C@@H](Cc1c[nH]cn1)C(=O)N[C@@H](CC(N)=O)C(=O)N[C@@H](CC(C)C)C(=O)NCC(=O)N[C@@H](CCCCN)C(=O)N[C@@H](Cc1c[nH]cn1)C(=O)N[C@@H](CC(C)C)C(=O)N[C@@H](CC(N)=O)C(=O)N[C@@H](CO)C(=O)N[C@@H](CCSC)C(=O)N[C@@H](CCC(=O)O)C(=O)N[C@@H](CCCNC(=N)N)C(=O)N[C@H](C(=O)N[C@H]1CSSC[C@@H](C(=O)N[C@@H](CC(C)C)C(=O)N[C@@H](CC(C)C)C(=O)N[C@@H](CCC(N)=O)C(=O)N[C@@H](CC(=O)O)C(=O)N[C@H](C(N)=O)C(C)C)NC(=O)[C@H](CCCNC(=N)N)NC(=O)[C@H](CC(C)C)NC(=O)[C@H](Cc2c[nH]c3ccccc23)NC1=O)C(C)C
B3: the “Adenylyl Cyclase (EC50)” value was 16 nM.

The values are drawn from patent US6541450B1, “Parathyroid hormone analogues for the treatment of osteoporosis” (National Research Council of Canada, priority 1994, dated 2003).
